Measurements published in paper doi:10.1101/2020.07.24.220665 (bioRxiv, 2020).
Values joined by “and” are separate entries in the source; they are usually repeats but may differ in a detail not shown here. Equal entries are not always repeated.

B1: granulin-3 (GRN-3) (natural protein, UniProt P28799 206-261, looked up)
chain: VMCPDARSRCPDGSTCCELPSGKWGCCPMPNATCCSDHLHCCPQDTVCDLIQSKCL
B2: granulin-5 (GRN-5) (natural protein, UniProt P28799 364-417, looked up)
chain: VPCDNVSSCPSSDTCCQLTSGEWGCCPIPEAVCCSDHQHCCPQGYTCVAEGQCQ

Biological target: the molecule itself
Assay: non-reducing PAGE

Row | Protein | stoichiometry N | binding result
1 | B1 | 2 and 3 | 
2 | B2 |  | binds
